Assay [1] has as its target T1, recombinant venom-derived factor V from Pseudonaja textilis (pt-rFV) (Pseudonaja textilis, UniProt Q7SZN0 31-1460).
T1 construct: mature
T1 sequence: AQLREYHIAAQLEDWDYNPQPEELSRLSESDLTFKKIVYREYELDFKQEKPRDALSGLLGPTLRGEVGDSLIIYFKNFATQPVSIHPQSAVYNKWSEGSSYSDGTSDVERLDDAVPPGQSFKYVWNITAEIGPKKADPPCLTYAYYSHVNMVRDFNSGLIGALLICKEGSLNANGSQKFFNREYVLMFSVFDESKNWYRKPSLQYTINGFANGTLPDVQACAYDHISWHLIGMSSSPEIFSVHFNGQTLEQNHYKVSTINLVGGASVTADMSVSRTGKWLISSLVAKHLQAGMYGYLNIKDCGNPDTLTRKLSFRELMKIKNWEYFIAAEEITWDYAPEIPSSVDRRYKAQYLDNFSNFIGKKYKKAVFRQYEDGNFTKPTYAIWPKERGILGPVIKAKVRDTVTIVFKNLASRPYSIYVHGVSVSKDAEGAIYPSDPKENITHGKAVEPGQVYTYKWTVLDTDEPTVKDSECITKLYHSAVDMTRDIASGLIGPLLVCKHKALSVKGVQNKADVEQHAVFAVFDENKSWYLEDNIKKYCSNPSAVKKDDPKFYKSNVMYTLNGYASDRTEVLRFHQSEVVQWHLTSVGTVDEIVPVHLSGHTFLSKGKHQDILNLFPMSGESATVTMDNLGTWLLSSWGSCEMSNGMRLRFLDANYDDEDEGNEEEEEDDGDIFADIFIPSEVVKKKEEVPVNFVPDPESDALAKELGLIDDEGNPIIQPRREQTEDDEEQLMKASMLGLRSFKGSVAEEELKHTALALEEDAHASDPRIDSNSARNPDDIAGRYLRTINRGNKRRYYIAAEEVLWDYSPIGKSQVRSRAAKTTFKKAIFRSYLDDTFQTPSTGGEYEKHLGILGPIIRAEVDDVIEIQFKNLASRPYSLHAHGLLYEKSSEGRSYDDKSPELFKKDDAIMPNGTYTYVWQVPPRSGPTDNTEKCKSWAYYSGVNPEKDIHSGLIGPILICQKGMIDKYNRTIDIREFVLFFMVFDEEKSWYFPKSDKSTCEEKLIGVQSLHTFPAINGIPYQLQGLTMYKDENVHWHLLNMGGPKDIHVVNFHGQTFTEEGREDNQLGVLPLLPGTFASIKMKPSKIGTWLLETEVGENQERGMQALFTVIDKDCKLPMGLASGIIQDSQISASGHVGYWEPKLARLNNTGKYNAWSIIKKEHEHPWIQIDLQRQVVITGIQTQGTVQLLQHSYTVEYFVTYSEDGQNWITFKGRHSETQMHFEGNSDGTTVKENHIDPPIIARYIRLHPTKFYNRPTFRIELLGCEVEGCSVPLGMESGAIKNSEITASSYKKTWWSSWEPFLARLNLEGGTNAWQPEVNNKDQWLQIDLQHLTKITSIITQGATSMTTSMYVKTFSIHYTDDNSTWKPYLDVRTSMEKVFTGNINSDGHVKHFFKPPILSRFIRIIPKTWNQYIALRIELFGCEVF
Put plainly: fluorescent binding measurements, membrane-bound human FXa (data not shown).

Assay [2] addresses T2, pt-rFVa (pt-rFV processed by thrombin) (Pseudonaja textilis, UniProt Q7SZN0 31-772; Q7SZN0 819-1460).
T2 sequence (heavy): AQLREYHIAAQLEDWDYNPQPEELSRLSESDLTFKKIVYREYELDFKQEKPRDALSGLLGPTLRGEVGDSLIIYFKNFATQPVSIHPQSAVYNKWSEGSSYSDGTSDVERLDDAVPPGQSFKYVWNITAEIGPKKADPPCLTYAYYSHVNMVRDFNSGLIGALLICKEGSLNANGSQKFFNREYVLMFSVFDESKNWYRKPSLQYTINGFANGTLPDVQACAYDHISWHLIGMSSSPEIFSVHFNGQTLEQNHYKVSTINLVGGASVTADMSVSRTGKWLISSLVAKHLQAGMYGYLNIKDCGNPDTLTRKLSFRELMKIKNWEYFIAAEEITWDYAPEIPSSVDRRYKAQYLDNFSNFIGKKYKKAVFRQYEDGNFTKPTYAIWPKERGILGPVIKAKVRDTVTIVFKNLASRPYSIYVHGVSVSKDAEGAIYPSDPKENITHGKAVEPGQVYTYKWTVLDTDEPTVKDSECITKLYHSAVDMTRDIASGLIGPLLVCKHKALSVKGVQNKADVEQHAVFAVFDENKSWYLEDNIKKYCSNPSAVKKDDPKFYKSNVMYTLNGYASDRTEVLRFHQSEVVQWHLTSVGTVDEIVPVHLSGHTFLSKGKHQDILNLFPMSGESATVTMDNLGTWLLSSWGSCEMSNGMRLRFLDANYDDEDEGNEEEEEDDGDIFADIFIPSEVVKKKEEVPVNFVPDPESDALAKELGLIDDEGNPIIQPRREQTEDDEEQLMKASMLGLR
T2 sequence (light): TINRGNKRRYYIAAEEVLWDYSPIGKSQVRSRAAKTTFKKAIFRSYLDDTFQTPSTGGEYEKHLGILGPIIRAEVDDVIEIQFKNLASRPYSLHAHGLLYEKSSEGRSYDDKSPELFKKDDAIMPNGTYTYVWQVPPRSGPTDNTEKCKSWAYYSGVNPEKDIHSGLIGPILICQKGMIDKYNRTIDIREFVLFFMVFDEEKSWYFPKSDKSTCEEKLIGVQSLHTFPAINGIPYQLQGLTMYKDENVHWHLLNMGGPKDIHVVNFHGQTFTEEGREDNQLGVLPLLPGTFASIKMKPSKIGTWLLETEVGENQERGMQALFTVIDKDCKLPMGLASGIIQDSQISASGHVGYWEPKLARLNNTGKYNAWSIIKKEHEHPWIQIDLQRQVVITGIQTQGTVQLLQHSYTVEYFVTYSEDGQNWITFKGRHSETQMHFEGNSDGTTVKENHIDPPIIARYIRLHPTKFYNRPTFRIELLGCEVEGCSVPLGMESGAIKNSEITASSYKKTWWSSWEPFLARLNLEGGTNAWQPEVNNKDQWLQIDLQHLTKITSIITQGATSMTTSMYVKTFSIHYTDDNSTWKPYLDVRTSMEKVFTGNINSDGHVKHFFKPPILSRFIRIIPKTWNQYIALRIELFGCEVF
The description is as above.

In assay [3] the target is T1, recombinant venom-derived factor V from ….
Assay [4] deals with T2, pt-rFVa (pt-rFV processed by thrombin).
Assay [5] concerns the target hFV-810 (constitutively active partial B-domainless form of human FV) (human, UniProt P12259 29-2224).

Several values for one entry are separate records, joined by “and”; a condition that tells them apart may be missing. Equal values may be shown once. Read-outs that look alike come from different tables or passages of the source.

hFV-810 (constitutively active partial B-domainless form of human FV), sequence (P12259 other isoform, or with tags, fused parts or gaps limits assumed): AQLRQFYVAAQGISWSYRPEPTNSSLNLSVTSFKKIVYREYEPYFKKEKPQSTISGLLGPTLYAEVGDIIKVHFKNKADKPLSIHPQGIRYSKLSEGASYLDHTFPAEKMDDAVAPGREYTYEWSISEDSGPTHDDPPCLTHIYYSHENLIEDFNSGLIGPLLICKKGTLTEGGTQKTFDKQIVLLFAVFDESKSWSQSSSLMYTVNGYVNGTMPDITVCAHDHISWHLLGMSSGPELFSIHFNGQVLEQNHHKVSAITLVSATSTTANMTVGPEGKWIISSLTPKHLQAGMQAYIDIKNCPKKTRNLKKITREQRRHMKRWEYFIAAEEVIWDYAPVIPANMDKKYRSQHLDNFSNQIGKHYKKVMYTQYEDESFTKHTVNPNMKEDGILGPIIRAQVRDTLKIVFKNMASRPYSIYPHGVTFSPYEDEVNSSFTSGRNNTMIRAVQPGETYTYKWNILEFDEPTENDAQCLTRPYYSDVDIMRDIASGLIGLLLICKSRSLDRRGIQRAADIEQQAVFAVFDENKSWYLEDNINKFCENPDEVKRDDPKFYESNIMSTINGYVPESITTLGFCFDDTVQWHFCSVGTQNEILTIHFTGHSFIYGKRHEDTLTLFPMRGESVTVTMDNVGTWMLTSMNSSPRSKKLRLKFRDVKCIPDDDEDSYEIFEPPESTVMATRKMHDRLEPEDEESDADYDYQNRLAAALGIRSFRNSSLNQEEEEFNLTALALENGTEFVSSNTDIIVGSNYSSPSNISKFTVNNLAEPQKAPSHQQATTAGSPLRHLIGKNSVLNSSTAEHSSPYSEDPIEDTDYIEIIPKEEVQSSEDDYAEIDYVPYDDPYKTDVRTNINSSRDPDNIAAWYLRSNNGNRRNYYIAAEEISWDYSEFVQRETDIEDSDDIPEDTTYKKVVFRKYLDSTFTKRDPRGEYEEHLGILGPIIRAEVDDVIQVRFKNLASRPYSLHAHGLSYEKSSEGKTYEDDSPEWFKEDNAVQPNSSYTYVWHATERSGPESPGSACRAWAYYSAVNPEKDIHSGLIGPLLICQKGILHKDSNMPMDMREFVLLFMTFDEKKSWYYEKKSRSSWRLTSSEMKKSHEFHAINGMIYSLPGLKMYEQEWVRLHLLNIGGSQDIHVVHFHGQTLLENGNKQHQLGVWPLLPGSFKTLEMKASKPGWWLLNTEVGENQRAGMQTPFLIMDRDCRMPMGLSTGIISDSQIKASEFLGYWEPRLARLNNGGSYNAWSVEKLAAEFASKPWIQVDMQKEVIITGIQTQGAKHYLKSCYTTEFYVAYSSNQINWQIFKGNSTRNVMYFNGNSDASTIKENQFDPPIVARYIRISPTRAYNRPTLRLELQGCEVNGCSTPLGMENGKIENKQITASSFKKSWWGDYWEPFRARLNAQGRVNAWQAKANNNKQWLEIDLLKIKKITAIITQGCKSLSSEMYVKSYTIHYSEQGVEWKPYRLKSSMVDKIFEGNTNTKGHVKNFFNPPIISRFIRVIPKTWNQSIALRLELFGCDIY

B1: human factor Xa (membrane-bound human FXa) (enzyme)
chain 1: ANSFLEEMKKGHLERECMEETCSYEEAREVFEDSDKTNEFWNKYKDGDQCETSPCQNQGKCKDGLGEYTCTCLEGFEGKNCELFTRKLCSLDNGDCDQFCHEEQNSVVCSCARGYTLADNGKACIPTGPYPCGKQTLER
chain 2: IVGGQECKDGECPWQALLINEENEGFCGGTILSEFYILTAAHCLYQAKRFKVRVGDRNTEQEEGGEAVHEVEVVIKHNRFTKETYDFDIAVLRLKTPITFRMNVAPACLPERDWAESTLMTQKTGIVSGFGRTHEKGRQSTRLKMLEVPYVDRNSCKLSSSFIITQNMFCAGYDTKQEDACQGDSGGPHVTRFKDTYFVTGIVSWGEGCARKGKYGIYTKVTAFLKWIDRSMKTRGLPKAKSHAPEVITSSPLK
notes: also called rFXa; human rFXa
Usually Kd stands for a measure of binding affinity in units of concentration. For B1, the dissociation constant (Kd) in assay [1] and in assay [2] was > 400 nM in each case.

B2: purified enzymatic subunit of pseutarin C (pt-FXa) (enzyme)
chain 1: ANSLVEEFKSGNIERECIEERCSKEEAREVFEDDEKTETFWNVYVDGDQCSSNPCHYRGICKDGIGSYTCTCLSGYEGKNCERVLYKSCRVDNGNCWHFCKSVQNDIQCSCAEGYLLGEDGHSCVAGGNFSCGRNIKTRNK
chain 2: IVNGMDCKLGECPWQAALVDDKKGVFCGGTILSPIYVLTAAHCINETETISVVVGEIDRSRAETGPLLSVDKVYVHKKFVPPKKSQEFYEKFDLVSYDYDIAIIQMKTPIQFSENVVPACLPTADFANQVLMKQDFGIVSGFGGIFERGPNSKTLKVLKVPYVDRHTCMLSSNFPITPTMFCAGYDTLPQDACQGDSGGPHITAYRDTHFITGIVSWGEGCARKGRYGIYTKLSKFIPWIKRIMRQKLPSTESSTGRL
Take B2: the dissociation constant (Kd) in assay [3] was 3.06 nM and 8.08 nM; in assay [4], 3.84 nM and 7.54 nM; in assay [5], 3.76 nM.

The record behind these values is patent US8557762 (CHILDREN S HOSPITAL OF PHILADELPHIA, dated 2013).
